Measurements as given in article PMC10256678, “Structural mechanism of intracellular autoregulation of zinc uptake in ZIP transporters” (Nature Communications, 2023).

Biological target: the molecule itself
Assay: cryo-EM structure; BbZIP in amphipol PMAL-C8 nanoparticles, purified with Cd2+, 20 mM HEPES pH 7.5, 100 mM NaCl; C2 symmetry, 3.05 Å (C1: 3.3 Å)

B1: ZIP-family zinc transporter from Bordetella bronchiseptica (BbZIP) (natural protein, UniProt A0A0H3LM39 1-309, looked up)
chain: MNQPSSLAADLRGAWHAQAQSHPLITLGLAASAAGVVLLLVAGIVNALTGENRVHVGYAVLGGAAGFAATALGALMALGLRAISARTQDAMLGFAAGMMLAASAFSLILPGLDAAGTIVGPGPAAAAVVALGLGLGVLLMLGLDYFTPHEHERTGHQGPEAARVNRVWLFVLTIILHNLPEGMAIGVSFATGDLRIGLPLTSAIAIQDVPEGLAVALALRAVGLPIGRAVLVAVASGLMEPLGALVGVGISSGFALAYPISMGLAAGAMIFVVSHEVIPETHRNGHETTATVGLMAGFALMMFLDTALG
notes: Zrt-/Irt-like protein (ZIP) zinc transporter of Bordetella bronchiseptica, full length gene synthesized and cloned into pET15b; molecular weight 31 kDa; Membrane protein; purified with Cd2+ (CdCl2) present; three Cd2+ ions per protomer and two phosphatidylethanolamine lipids at the dimer in the cryo-EM structure; also called WT BbZIP; source: E. coli C43 (DE3), purified (Ni-NTA, thrombin …)
With B1 the “stoichiometry N” value was 2.
